Experimental findings from US8129349B2, “Treatment of disease by inducing cell apoptosis” (The Regents of the University of California, priority 2000, dated 2012) are described below.

For one experiment, the target named is T1, caspase 1 (Homo sapiens, UniProt P29466).
T1 construct: purchased Alexis Biochemicals 201-056
T1 sequence (P29466 120-404): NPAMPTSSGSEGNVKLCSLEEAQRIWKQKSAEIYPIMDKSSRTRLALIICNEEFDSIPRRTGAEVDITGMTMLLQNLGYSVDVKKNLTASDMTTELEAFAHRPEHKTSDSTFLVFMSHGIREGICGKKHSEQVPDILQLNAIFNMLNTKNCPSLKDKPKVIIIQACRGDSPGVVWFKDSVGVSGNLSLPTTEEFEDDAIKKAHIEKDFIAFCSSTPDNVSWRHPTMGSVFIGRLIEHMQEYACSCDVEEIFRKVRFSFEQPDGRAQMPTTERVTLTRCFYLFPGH
Kind of experiment: In vitro self-activation of recombinant caspase 1. The class given is biochemical. Particulars: peptides 200 μM, 2 h, procaspase 1 (1U). As to the method: (§1) FIG. 5 provides results showing the direct association of C/EBPβ-Glu^217 with procaspases 1 and 8. […] Enzyme activity was measured in the absence (control) or presence of C/EBPβ peptides (200 μM) for 2 h, using a procaspases 1 (1U) (not shown) and 8 (0.2 μg) activity assay. Values are presented as the mean±one half the range of duplicates. Panel C provides results for cells cultured on a collagen type I matrix and incubated with the indicated cell permeant, purified synthetic N-acetyl, C-aldehyde C/EBPβ tetra-peptides (10 μM) or with recombinant C/EBPβ-HA peptides as indicated, together with the Chariot reagent (Active Motif) for 4 h. Control cells were incubated without peptides (P<0.05 for all peptides containing Ala^217).
Purified recombinant C/EBPβ peptides, expressed as known in the art (See, Descombes et al., supra; and Buck et al. (1994), supra), and purified synthetic N-acetyl, C-aldehyde tetrapeptides (200 μM) (American Peptide Company) were assayed for their ability to inhibit the activity of purified human recombinant caspases 1 (catalogue # 201-056) and 8 (catalogue # 201-041-C005) (Alexis Biochemicals). The sequence of caspase 8 includes Ser217 through Asp479 cloned into an expression vector containing a 21 amino acid linker at the N-terminus. Thus, the prodomain (first 220 amino acids) is essentially missing. […] Caspase activity was determined by the release of the p-nitroaniline colorimetric (Alexis Biochemicals) substrate for caspase 1 (catalogue # 260-026) or 8 (catalogue # 260-045) within the linear part of the kinetic assay (Thornberry et al. (1997), supra; Stennicke and Salvesen, supra). […]
(§2) To delineate the role of C/EBPβ on the activation of procaspases 1 and 8, the self-activation of recombinant procaspases 1 and 8 was induced in vitro (Wilson et al., supra; Margolin et al., supra; and Earnshaw et al., supra), and the effect of purified recombinant C/EBPβ peptides, produced as described previously (Descombes et al., supra; and Buck et al., (1994), supra) on this process was determined. […]

A further experiment deals with T2, procaspase 1 (Homo sapiens, UniProt P29466).
T2 construct: purchased Alexis Biochemicals 201-056
T2 sequence (P29466 1-404): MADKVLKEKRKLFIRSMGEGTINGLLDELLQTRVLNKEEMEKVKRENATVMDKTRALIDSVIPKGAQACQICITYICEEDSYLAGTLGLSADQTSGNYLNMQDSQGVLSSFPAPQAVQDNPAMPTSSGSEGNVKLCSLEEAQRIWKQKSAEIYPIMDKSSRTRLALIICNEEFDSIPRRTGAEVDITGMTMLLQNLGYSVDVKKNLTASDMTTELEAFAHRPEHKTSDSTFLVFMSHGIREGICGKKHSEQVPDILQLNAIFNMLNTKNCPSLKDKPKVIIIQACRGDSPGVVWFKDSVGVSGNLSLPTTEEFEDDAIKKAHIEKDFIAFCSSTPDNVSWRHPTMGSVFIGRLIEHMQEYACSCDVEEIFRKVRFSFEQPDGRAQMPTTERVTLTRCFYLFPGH
The experiment is described as follows: Co-immunoprecipitation of purified recombinant procaspase 1 with recombinant C/EBPβ peptides. The experiment is classed as binding. Particulars: peptides 200 μM, procaspase 1 0.6 U, quantitated by densitometry. The method, then: as §1
Purified recombinant C/EBPβ peptides, expressed as known in the art (See, Descombes et al., supra; and Buck et al. (1994), supra), and purified synthetic N-acetyl, C-aldehyde tetrapeptides (200 μM) (American Peptide Company) were assayed for their ability to inhibit the activity of purified human recombinant caspases 1 (catalogue # 201-056) and 8 (catalogue # 201-041-C005) (Alexis Biochemicals). The sequence of caspase 8 includes Ser217 through Asp479 cloned into an expression vector containing a 21 amino acid linker at the N-terminus. Thus, the prodomain (first 220 amino acids) is essentially missing. The fragment is cleaved at Asp385 and the active caspases are essentially identical to those identified in apoptotic cells (Stennicke and Salvesen, Meth. Enzymol., 322:91-100 (1997)). Caspase activity was determined by the release of the p-nitroaniline colorimetric (Alexis Biochemicals) substrate for caspase 1 (catalogue # 260-026) or 8 (catalogue # 260-045) within the linear part of the kinetic assay (Thornberry et al. (1997), supra; Stennicke and Salvesen, supra). Caspase 1 and 8 activity in cells was performed with colorimetric kits (catalogues # 850-211-K and 850-221-K) as described by the manufacturer (Alexis) (See also, Thornberry et al. (1997), supra). The caspase 8 inhibitor IETD was from Calbiochem (Catalogue # 218773).
as §2, with “determined. Consistent with the in vivo results described above, C/EBPβ-HA-Glu^217 and C/EBPβ 216-253-HA-Glu^217, but not C/EBPβ-HA-Ala^217, peptides associated with procaspases 1 and 8 (See, FIG. 5, Panel A).” for “determined.”

Experiment [1] has as its system C/EBPβ-Ala^217 stellate cells. The experiment is described as follows: Apoptosis of stellate cells from C/EBPβ-Ala^217 transgenic mice, Hoechst 33342 nuclear staining. The class given is cell-based, mouse. The note with it: collagen type I; IETD or transfection 1 μg. The method, then:
FIG. 2 provides results showing increased apoptosis in hepatic stellate cells from C/EBPβ^−/− and C/EBPβ-Ala^217 transgenic mice. […] Six hours after cultivation, an annexin-V-PE binding assay was performed (P<0.05 for C/EBPβ^−/− and C/EBPβ-Ala^217). […] Apoptotic cells are indicated with arrowheads.
Fluorescent labels were observed using a triple-channel fluorescence microscope. The fluorochromes utilized were FITC and Texas red (Molecular Probes). The number of annexin V (+) cells was determined by in vivo microscopy as known in the art (See, Rudel and Bokoch, supra) among all cells or those expressing the GFP indicator protein either co-transfected with C/EBPβ proteins, or alone. These values are reported herein as a percentage of annexin V (+) for cells expressing the transfected DNA. At least 1000 cells were analyzed per experimental point, including at least 100 cells expressing the transfected DNA (Buck and Chojkier, EMBO J., 15:1753-1765 (1996); Buck et al., (1994), supra; and Buck et al., (1999), supra). […] Nuclear morphology was analyzed by staining cells with Hoechst 33342 (Molecular Probes). […]

B1: C/EBPβ-Glu^217: modified murine C/EBPβ with mutation of Thr^217 to glutamic acid (SEQ ID NO:4), phosphorylation mimic (protein, listed as Mus musculus)
chain: MHRLLAWDAACLPPPPAAFRPMEVANFYYEPDCLAYGAKAARAAPRAPAAEPAIGEHERAIDFSPYLEPLAPAADFAAPAPAHHDFLSDLFADDYGAKPSKKPADYGYVSLGRAGAKAAPPACFPPPPPAALKAEPGFEPADCKRADDAPAMAAGFPFALRAYLGYQATPSGSSGSLSTSSSSSPPGTPSPADAKAAPAACFAGPPAAPAKAKAKKZVDKLSDEYKMRRERNNIAVRKSRDKAKMRNLETQHKVLELTAENERLQKKVEQLSRELSTLRNLFKQLPEPLLASAGHC
With B1, the “Inhibition of in vitro self-activation of caspase 1” value in the experiment with caspase 1 was “inhibited the in vitro self-activation”. The “Co-immunoprecipitation of procaspase 1, fold more than the Ala^217 peptides” value with procaspase 1 stood at 7 fold. Besides, the “Block of apoptosis of C/EBPβ-Ala^217 stellate cells” value in experiment [1] is reported as “blocked”.
